Test results: publication PMC9817077, “Simple, Reliable Protocol for High-Yield Solubilization of Seedless Amyloid-β Monomer” (ACS Chemical Neuroscience, 2022)

How the values were obtained:
[1] = AF4-MALS fractionation of re-solubilized samples; assay type: physicochemical
Procedure: Samples were analyzed using an AF4 frit inlet (FI) channel equilibrated in 1 mM NaOH, with a 250 μm spacer and a 1 kDa PES membrane, and in-line UV (280 nm; Shimadzu, U.K.), MALS, and RI detectors. Except where otherwise stated, the channel, associated pumps, autosampler, and detectors were purchased or loaned from Postnova Analytics (Landsberg am Lech, Germany). The RI detector was purged following equilibration, and the UV and RI detectors were then zeroed. […] The sample was separated in a 1 mM NaOH mobile phase, with 0.2 mL/min TIP and detector flow; the focus and cross-flow rates were also matched to one another and varied throughout the run.
Data processing and estimation of sample concentration, molecular weight, and recovery were carried out in the AF2000 Control software (Postnova Analytics, Landsberg am Lech, Germany), with additional data processing in GraphPad Prism version 8.3.0. […] We note that, although there is an isosbestic point nearby at 276 nm, the relatively rapid decrease in tyrosine absorbance and increase in tyrosinate absorbance to the right of this point mean that deprotonation still has a significant effect on the extinction coefficient at 280 nm. […] As a result, the tyrosine/tyrosinate extinction coefficient is more appropriate for analysis of the monomer and oligomer fractions in our AF4-MALS runs. Molecular weight values were calculated by fitting models to the UV280 and MALS signals. The molecular weights in Figure 2e were obtained using a fourth-degree Berry fit from 2.0 to 7.0 min, a linear Zimm fit from 7.0 to 12.5 min, and a third-degree Berry fit from 28.0 to 50.0 min. The molecular weights in Figure 3c were obtained using a linear Zimm fit. […] This summation tends toward an exact integral as Δt → 0, and the experimental parameter of Δt = 0.12 min was sufficiently small for the approximation to be reasonably accurate. The probability density function p(M), which gives the probability density of species with mass M, can be calculated as p(M) = dP(Mw ≤ M)/dM. However, when presenting the data on a logarithmic axis, peaks in the probability density function are horizontally stretched at low M and horizontally compressed at high M, meaning that the peak area is no longer proportional to the mass of material.

[2] = Negative-stain electron microscopy (NS-EM); assay type: physicochemical; conditions: 4 μM
Procedure: To perform a further test for the presence of seeds, and determine whether the detected oligomers affected the self-assembly kinetics, Aβ(1-42) samples were purified by SEC, and their self-assembly kinetics were compared to those of unpurified samples. In summary, following the protocol used by Hellstrand et al.,[39] […] The fraction eluting from 13.6 to 14.6 min (at 1 mL/min) was collected on ice, diluted variably (60, 80, or 100%, i.e., undiluted) in the elution buffer to give a range of concentrations, supplemented with ThT from a concentrated stock, and used in ThT assays. This purification procedure was repeated several times with reproducible results, and a representative elugram is shown in Figure 6a. The UV absorbance and RI elugrams are very similar to those previously reported for in-house recombinant peptide purified according to the same protocol,[39] and the peak at ∼14 min has already been identified as the monomer. […]
The resulting sample was deposited on grids immediately, or after incubation for 1 h in a 96-well plate treated with a PEG-like low-binding surface (Corning 3881, NY), at 37 °C. […] Micrographs were recorded with a 1024 × 1024 px Gatan CCD camera, and images were analyzed using FIJI.[100],[101]

[3] = 50 mM NaOH, 20 μg injected, mean ± SD
[4] = 50 mM NaOH, geometric average Mw elugram, ROI 3.3–20.0 min
[5] = 5 min sonication in 50 mM NaOH (pH ≈ 12.5), 20 μg injected, 1 mM NaOH mobile phase, UV280, mean ± SD, n = 12
[6] = re-solubilized in 10 mM NaOH without HFIP, 20 μg injected, 1 mM NaOH mobile phase, UV280, mean ± SD

## Aβ(1-42): Ultrapure recombinant Aβ(1-42) purchased from rPeptide, lyophilized from HFIP; disordered amyloid-forming peptide
[1]; 10 mM NaOH preparations with higher pH (≳10.0) after re-solubilization, 20 μg injected, mean ± SD
  material eluting in peak 2: 18.30 ± 1.17 µg
[1]; 10 mM NaOH preparations with more neutral pH (≲8.0) after re-solubilization, 20 μg injected, mean ± SD
  material eluting in peak 2: 7.62 ± 2.20 µg
[1]; 10 mM NaOH preparations, more neutral samples (≲8.0), 20 μg injected, mean ± SD
  recovery in peak 1: 6.32 ± 6.62 µg
[1]; 10 mM NaOH, relative to injected mass of 20 μg, ± SD
  fraction of sample eluting in peak 3: ~11 ± 5%
[1]; [3]
  recovery from the first two regions of interest (1.5–30.0 min): 19.90 ± 0.99 µg
  total recovery across all three regions of interest: 20.62 ± 1.19 µg
[1]; [4]
  sample eluting in fractions suggestive of dimer or larger: 12%
  sample eluting in fractions with Mw closer to the monomer: 88%
[1]; 50 mM NaOH, geometric mean of 10 concordant Mw elugrams, linear Zimm fit
  Mw of eluting material from 4.0 to 5.0 min: ~4500 Da
[1]; 50 mM NaOH, sample eluting 3.3–20.0 min, from average elugram and UV280
  major peak of the molecular weight distribution: ~4500 Da
[1]; [5]
  material eluting in the peak 1 region (1.5–3.3 min): 0.31 ± 0.17 µg
  material eluting in the peak 2 region (3.3–30.0 min): 19.59 ± 0.90 µg
  material eluting in the peak 3 region (>30 min), nominal: 0.72 ± 0.32 µg
[1]; [6]
  material eluting in peak 1 (1.5–3.3 min): 3.99 ± 5.92 µg
  material eluting in peak 2 (3.3–30.0 min), monomer and small oligomer: 11.73 ± 5.70 µg
  material eluting in peak 3 (30.0–60.0 min): 2.11 ± 0.95 µg
[1]; re-solubilized in 10 mM NaOH, 20 μg injected, mean ± SD
  total material eluted in the AF4 run: 17.82 ± 6.68 µg
[2]; 50 mM NaOH sample diluted into pre-adjusted fibrillization buffer pH 8
  fibrillar species by NS-EM immediately after dilution: did not reveal any fibrillar species
[2]; ∼1 h under fibrillization conditions, 37 °C, early growth phase
  fibrillar species by NS-EM after incubation: fibrils were observed
